This test has as its target Receptor Binding-Domain (RBD) of SARS-CoV-2 Spike (S) protein, Wuhan-Hu-1 (SARS-CoV-2, UniProt P0DTC2). The experiment in a line: BLI.

B1: C118 (antibody, V domains shown)
VH: QVQLVESGGGVVQPGRSLRLSCAASGFTFSNYAMHWVRQAPGKGLEWVAVISYDGSNKYYADSVKGRFTISRDNSKNTLYLQMNSLRAEDTAIYYCASGYTGYDYFVRGDYYGLDVWGQGTTVTVSS
VL: QPVLTQSPSASASLGASVKLTCTLSSGHSSYAIAWHQQQPEKGPRYLMKLNTDGSHSKGDGIPDRFSGSSSGAERYLTISSLQSEDEADYYCQTWGTGILVFGGGTKLTVL
As to B1, the binding result was “binds”.

B2: C105 (antibody, V domains shown)
VH: QVQLVESGGGLIQPGGSLRLSCAASGFTVSSNYMSWVRQAPGKGLEWVSVIYSGGSTYYADSVKGRFTISRDNSKNTLYLQMNSLRAEDTAVYYCARGEGWELPYDYWGQGTLVTVSS
VL: QSALTQPPSASGSPGQSVTISCTGTSSDVGGYKYVSWYQQHPGKAPKLMIYEVSKRPSGVPDRFSGSKSGNTASLTVSGLQAEDEADYYCSSYEGSNNFVVFGGGTKLTVL
B2: the binding result is listed as “binds”.

Values taken from paper doi:10.1101/2022.02.14.480394 (bioRxiv, 2022).
